From patent US20250304973, “HIGH-AFFINITY THROMBIN APTAMERS AND METHODS OF USE” (Ayass Bioscience LLC, published 2025)

How the values were obtained:
thrombin = thrombin (Rattus norvegicus, UniProt P18292;P18292 P18292:311-359,P18292:360-617); experiment: BLI; biotinylated aptamer on streptavidin sensor, 1:1 fit; printed as "-0.6 nM"; conditions: label: 5' biotin (ELISA, BLI); predicted hairpin, possible G4
From the text: The biosensors were then exposed to varying concentrations of rat thrombin protein, allowing real-time monitoring of thrombin binding to the aptamer. Kinetic parameters were derived by fitting the BLI binding curves to a 1:1 binding model.

alpha-thrombin (native) = alpha-thrombin (native) (Homo sapiens, UniProt P00734;P00734 P00734:315-363,P00734:364-622); experiment: ELONA; 20 mM Tris pH 7.5, 150 mM NaCl, 0.1% BSA, 0.1% Tween 20, salmon sperm DNA, RT; competed by 100-fold unlabeled aptamer

B1: AYA1809002 (ssDNA)
DNA: GCGGTGTTGCTGGGGTTGGGAGGTTGGAGGAAGCAATCGC
B1 gave a Kd (thrombin) of roughly 0.6 nM and a Kd (alpha-thrombin (native)) of 10 nM.
